Measurements reported in patent US20060253917A1 (published 2006).

T1: OsMADS8 aa 61-248 (Oryza sativa, UniProt Q9SAR1 61-248)
T1 construct: prey, AD fusion; also called PN20778
T1 sequence: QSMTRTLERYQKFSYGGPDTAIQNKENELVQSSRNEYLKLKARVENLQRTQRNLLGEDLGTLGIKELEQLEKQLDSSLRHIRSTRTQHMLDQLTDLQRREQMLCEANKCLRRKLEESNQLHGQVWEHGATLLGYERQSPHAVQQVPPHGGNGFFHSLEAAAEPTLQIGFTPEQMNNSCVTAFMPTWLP

T2: OsMADS45 aa 48-249 (Oryza sativa, UniProt P0C5B0 48-249)
T2 construct: prey, AD fusion; also called PN20231
T2 sequence: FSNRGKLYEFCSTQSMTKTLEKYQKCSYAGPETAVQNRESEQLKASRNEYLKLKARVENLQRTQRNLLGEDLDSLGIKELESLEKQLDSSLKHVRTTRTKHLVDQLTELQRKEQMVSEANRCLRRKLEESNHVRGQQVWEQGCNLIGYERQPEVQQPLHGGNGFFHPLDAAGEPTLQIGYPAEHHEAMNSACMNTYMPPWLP

T3: OsMADS8 aa 6-159 (Oryza sativa, UniProt Q9SAR1 6-159)
T3 construct: prey, AD fusion; also called PN20778
T3 sequence: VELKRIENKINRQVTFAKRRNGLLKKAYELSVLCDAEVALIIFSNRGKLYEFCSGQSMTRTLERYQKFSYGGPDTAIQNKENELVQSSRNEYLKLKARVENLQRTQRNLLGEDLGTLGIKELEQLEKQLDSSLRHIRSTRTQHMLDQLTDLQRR

T4: OsMADS8 aa 68-245 (Oryza sativa, UniProt Q9SAR1 68-245)
T4 construct: prey, AD fusion; also called PN20778
T4 sequence: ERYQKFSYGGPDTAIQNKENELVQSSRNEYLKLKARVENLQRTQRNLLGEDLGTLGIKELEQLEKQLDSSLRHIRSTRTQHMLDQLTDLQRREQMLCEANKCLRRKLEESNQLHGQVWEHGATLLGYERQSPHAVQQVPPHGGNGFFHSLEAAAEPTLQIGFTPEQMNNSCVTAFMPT

T5: OsMADS45 aa 2-214 (Oryza sativa, UniProt P0C5B0 2-214)
T5 construct: prey, AD fusion; also called PN20231
T5 sequence: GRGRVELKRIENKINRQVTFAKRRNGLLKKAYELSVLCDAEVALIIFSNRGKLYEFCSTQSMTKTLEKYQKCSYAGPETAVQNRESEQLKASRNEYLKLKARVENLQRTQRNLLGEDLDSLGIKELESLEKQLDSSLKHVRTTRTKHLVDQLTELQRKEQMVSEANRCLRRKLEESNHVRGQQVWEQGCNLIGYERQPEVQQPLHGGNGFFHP

T6: OsMADS45 aa 57-249 (Oryza sativa, UniProt P0C5B0 57-249)
T6 construct: prey, AD fusion; also called PN20231
T6 sequence: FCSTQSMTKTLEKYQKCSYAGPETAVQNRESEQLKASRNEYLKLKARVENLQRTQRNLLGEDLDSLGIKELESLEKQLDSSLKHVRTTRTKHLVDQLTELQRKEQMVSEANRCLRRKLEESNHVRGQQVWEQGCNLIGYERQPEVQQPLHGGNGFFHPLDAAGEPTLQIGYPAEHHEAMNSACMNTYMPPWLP

T7: Os003181-3684 aa 58-140 (Oryza sativa)
T7 construct: bait, Gal4 DBD fusion; also called PN21036; Hypothetical Protein 003181-3684
T7 chain: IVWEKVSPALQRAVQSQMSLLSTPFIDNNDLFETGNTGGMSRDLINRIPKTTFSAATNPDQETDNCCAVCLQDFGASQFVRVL

T8: OsMADS1 aa 74-172 (Oryza sativa, UniProt A2XDY1 74-172)
T8 construct: prey, AD fusion; also called PN19788
T8 sequence: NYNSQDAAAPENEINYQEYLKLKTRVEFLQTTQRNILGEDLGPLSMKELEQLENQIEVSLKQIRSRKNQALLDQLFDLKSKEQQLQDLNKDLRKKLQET

T9: OsMADS1 aa 95-254 (Oryza sativa, UniProt A2XDY1 95-254)
T9 construct: prey, AD fusion; also called PN19788
T9 sequence: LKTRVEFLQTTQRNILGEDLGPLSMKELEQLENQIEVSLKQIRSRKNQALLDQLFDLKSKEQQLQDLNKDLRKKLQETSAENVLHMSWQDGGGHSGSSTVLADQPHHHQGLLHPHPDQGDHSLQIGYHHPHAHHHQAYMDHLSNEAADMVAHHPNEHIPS

T10: OsMADS45 aa 120-249 (Oryza sativa, UniProt P0C5B0 120-249)
T10 construct: prey, AD fusion; also called PN20231
T10 sequence: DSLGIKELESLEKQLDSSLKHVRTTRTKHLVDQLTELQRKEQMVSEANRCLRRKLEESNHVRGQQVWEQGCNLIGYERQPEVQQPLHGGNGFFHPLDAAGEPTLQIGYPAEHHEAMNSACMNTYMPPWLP

T11: OsFDRMADS6 aa 74-246 (Oryza sativa, UniProt P0C5B1 74-246)
T11 construct: prey, AD fusion; also called PN19766
T11 sequence: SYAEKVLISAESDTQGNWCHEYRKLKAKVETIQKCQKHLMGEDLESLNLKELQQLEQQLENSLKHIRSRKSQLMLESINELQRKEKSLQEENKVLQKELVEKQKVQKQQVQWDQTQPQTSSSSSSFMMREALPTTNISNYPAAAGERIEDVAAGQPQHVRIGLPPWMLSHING

T12: OsMADS17 aa 51-248 (Oryza sativa, UniProt Q7XUN2 51-248)
T12 construct: prey, AD fusion; also called PN20914
T12 sequence: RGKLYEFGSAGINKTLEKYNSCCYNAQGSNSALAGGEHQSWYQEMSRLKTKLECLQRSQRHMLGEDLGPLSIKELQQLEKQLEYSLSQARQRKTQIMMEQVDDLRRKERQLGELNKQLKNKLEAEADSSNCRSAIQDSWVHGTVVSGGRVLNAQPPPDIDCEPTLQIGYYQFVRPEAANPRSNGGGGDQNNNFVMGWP

T13: OsHOS59 aa 1-206 (Oryza sativa, UniProt Q94LW4 113-311)
T13 construct: bait, Gal4 DBD fusion; also called PN20559
T13 sequence: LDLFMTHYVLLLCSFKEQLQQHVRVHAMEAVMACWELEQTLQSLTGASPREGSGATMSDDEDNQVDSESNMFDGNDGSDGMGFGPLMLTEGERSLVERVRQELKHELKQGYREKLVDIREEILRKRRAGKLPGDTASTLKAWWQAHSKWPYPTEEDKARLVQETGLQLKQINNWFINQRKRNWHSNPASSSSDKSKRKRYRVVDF

B1: OsMADS3 aa 70-170 (other)
chain: KKANSDTSNSGTVAEVNAQHYQQESSKLRQQISSLQNANSRTIVGDSINTMSLRDLKQVENRLEKGIAKIRARKNELLYAEVEYMQKREVELQNDNMYLRS
notes: bait, Gal4 DBD fusion; also called PN20700
B2: OsPN29971 aa 1-108 (other)
chain: EKSDVQSTLEMELDRRSNDWSVKLAEFQSEEQRLRERVRELAEQNVSFQREVTLLESNRIDVSNKITSLELQNKQLNDELQKVKKEHDTLLKSSVELNDNLTKTAEGY
notes: prey, AD fusion; also called Novel protein PN29971, fragment, similar to A. thaliana centromere protein
B3: OsPN31165 aa 58-252 (other)
chain: YAREMERLSAKESLLLAFRDAGGFESLVSGKTTGMQKIDVNERIVGLERLNPTPRPTTSPFLEGRWNFEWFGDSSPGALAARLLFERSPTTVAHFTGLDVLIKDGYSKISSNVKFLNTVQSKFLLTTQLSVEGPIRMKEEYVEGLIEIPRIREETLPDQLKGFFGQTAGALQQLPAPIRDAVSEGIKLPLNGMFQ
notes: prey, AD fusion; also called Novel protein PN31165
B4: OsHOS59 aa 1-100 (other)
chain: LDLFMTHYVLLLCSFKEQLQQHVRVHAMEAVMACWELEQTLQSLTGASPREGSGATMSDDEDNQVDSESNMFDGNDGSDGMGFGPLMLTEGERSLVERVR
notes: bait, Gal4 DBD fusion; also called PN20559; O. sativa Homeobox Protein HOS59, Fragment
B5: OsAAD27557 aa 1-149 (other)
chain: MDSTKQDFQPRTFSIKLWPPSESTRLMLVERMTKNLSTESIFSRKYGLLGKEEAHDNAKRIEEVCFASADEHFKEEPDGDGSSAVQLYAKETSKLMLEVLKRGPRTTVEPEVPVADTPLEPADSVFDISGGKRAFIEADEAKELLSPLI
notes: prey, AD fusion; also called PN22896
B6: OsMADS15 aa 100-235 (other)
chain: AKIETIQKCHKHLMGEDHESLNLKELQQLEQQLESSLKHIISRKSHLMLESISELQKKERSLQEENKALQKELVERQKNVRGQQQVGQWDQTQVQAQAQAQPQAQTSSSSSSMLRDQQALLPPQNICYPPVMMGER
notes: bait, Gal4 DBD fusion; also called PN20842
B7: OsMADS5 aa 50-160 (other)
chain: TRGRLFEFSTSSCMYKTLERYRSCNYNLNSCEASAALETELSNYQEYLKLKTRVEFLQTTQRNLLGEDLVPLSLKELEQLENQIEISLMNIRSSKNQQLLDQVFELKRKEQ
notes: bait, Gal4 DBD fusion; also called PN20770
B8: OsAAD27557 aa 7-142 (other)
chain: DFQPRTFSIKLWPPSESTRLMLVERMTKNLSTESIFSRKYGLLGKEEAHDNAKRIEEVCFASADEHFKEEPDGDGSSAVQLYAKETSKLMLEVLKRGPRTTVEPEVPVADTPLEPADSVFDISGGKRAFIEADEAK
notes: as for B5
B9: OsPN23251 aa 112-291 (other)
chain: DMNLITDQDFTELVQKVPDDCLFTIVSDSCHSGGLLDKTKEQIGHSTKQNQAQQIKREERSDSGTGGFRSFLKETLKETVRDAFESRGVHIPHQSSRRNDDEDEEPHMGSSSHGGDRIKNRSLPLSTLIEMLKEKTGKDDIDVGSIRMTLFSLFGDDASPKIKKFMKVMLTKLQEGQHGG
notes: prey, AD fusion; also called Novel Protein PN23251
B10: Os018989-4003 aa 69-294 (other)
chain: GGGGNAAEREEGGANRNGKKEKTGAQRITGWGLREFSKIVSKKVEAKGRTTYNEVADEIFAELKSITQNGLEFDEKNIRRRVYDAFNVLIAIRVIAKDKKEIKWMGLTNYRYEKIQKLEEVHKELITRIKNKKKLLQEIEKQFDDLQNITLRNQASQRPAESVNGILLPFLLIKTSRKARVEIEISEDSKFARFDFNGAPFTMHDDVSILEAIRRNKGRAGLSIHP
notes: prey, AD fusion; also called PN21044

Columns and labels:
[1] = biological target: T1, OsMADS8 aa 61-248; test: Y2H; input trait library
How it was run: (§1)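 Using an automated, high-throughput yeast two-hybrid assay provided by Myriad Genetics Inc. (Salt Lake City, Utah), protein-protein interactions were detected. Against either the input trait or the output trait rice prey library, a bait clone encoding a defined amino-acid fragment of a rice protein was screened. The encoding sequences of the prey clones that were retrieved were then compared against databases by BLAST to identify the interacting proteins.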

[2] = biological target: T2, OsMADS45 aa 48-249; test: Y2H; input trait library
How it was run: as §1

[3] = biological target: T3, OsMADS8 aa 6-159; test: Y2H; output trait library
How it was run: as §1

[4] = biological target: T4, OsMADS8 aa 68-245; test: Y2H; output trait library
How it was run: as §1

[5] = biological target: T5, OsMADS45 aa 2-214; test: Y2H; output trait library
How it was run: as §1

[6] = biological target: T6, OsMADS45 aa 57-249; test: Y2H; output trait library
How it was run: as §1

[7] = biological target: B6; test: Y2H; input trait library
How it was run: as §1

[8] = biological target: B1; test: Y2H; input trait library
How it was run: as §1

[9] = biological target: T14, Os000221-3976 aa 123-238 (Oryza sativa, UniProt Q07078 342-457); test: Y2H; input trait library
T14 construct: prey, AD fusion; also called PN23169
How it was run: as §1

[10] = biological target: T7, Os003181-3684 aa 58-140; test: Y2H; output trait library
How it was run: as §1

[11] = biological target: T8, OsMADS1 aa 74-172; test: Y2H; input trait library
How it was run: as §1

[12] = biological target: T9, OsMADS1 aa 95-254; test: Y2H; input trait library
How it was run: as §1

[13] = biological target: T10, OsMADS45 aa 120-249; test: Y2H; output trait library
How it was run: as §1

[14] = biological target: T11, OsFDRMADS6 aa 74-246; test: Y2H; output trait library
How it was run: as §1

[15] = biological target: T12, OsMADS17 aa 51-248; test: Y2H; output trait library
How it was run: as §1

[16] = biological target: B4; test: Y2H; input trait library
How it was run: as §1

[17] = biological target: T13, OsHOS59 aa 1-206; test: Y2H; input trait library
How it was run: as §1

[18] = biological target: T15, OsE2F2 (367) aa 1-368 (Oryza sativa); test: Y2H; input trait library
T15 construct: bait, Gal4 DBD fusion; also called PN21003; E2F2 Homolog, Alt
How it was run: as §1

T14 sequence (Q07078 342-457): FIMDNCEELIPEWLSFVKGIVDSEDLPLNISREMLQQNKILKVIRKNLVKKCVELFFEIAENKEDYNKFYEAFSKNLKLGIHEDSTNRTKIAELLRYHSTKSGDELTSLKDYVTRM
T15 sequence (chain, as listed by the source limits assumed): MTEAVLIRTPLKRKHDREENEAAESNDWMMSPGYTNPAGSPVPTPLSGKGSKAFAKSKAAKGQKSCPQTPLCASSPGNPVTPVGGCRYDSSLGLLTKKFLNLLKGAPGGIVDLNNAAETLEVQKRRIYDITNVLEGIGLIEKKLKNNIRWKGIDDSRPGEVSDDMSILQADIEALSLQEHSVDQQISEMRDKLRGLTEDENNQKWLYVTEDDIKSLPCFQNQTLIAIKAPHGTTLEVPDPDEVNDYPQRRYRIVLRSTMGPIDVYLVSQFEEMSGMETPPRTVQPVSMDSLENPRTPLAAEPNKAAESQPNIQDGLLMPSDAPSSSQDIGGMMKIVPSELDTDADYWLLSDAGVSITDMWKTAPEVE

Binder: B1
- binding result [1]: binds
- binding result [2]: binds
- binding result [3]: binds
- binding result [4]: binds
- binding result [5]: binds
- binding result [6]: binds

Binder: B2
- binding result [7]: binds

Binder: B3
- binding result [8]: binds

Binder: B4
- binding result [9]: binds

Binder: B5
- binding result [10]: binds

Binder: B6
- binding result [11]: binds
- binding result [12]: binds
- binding result [13]: binds

Binder: B7
- binding result [14]: binds
- binding result [15]: binds

Binder: B8
- binding result [16]: binds

Binder: B9
- binding result [17]: binds

Binder: B10
- binding result [18]: binds
